Assay results reported in patent US20110172153A1.
Ends that are not written are not given here.

Target: PTH receptor, R^0 and RG conformations (species not stated at the figure legends) (Homo sapiens (Human)) (UniProt Q03431)
Test: R0 binding affinity in vitro, table inset of FIG. 18; reference [E19],Mc-hPTH(1-34)OH

- fold reduction of binding affinity for R^0 against [E^19 Mc]PTH(1-34): 10 fold
Binder: AVAEIQLMHQRAKWLNSMERVEALRKKLQDVHNF-OH [[A^23,E^19],Mc-hPTH(1-34)OH]
